Molecular target: the molecule itself
Assay: SEC

B1: His6-FtmOx1-Y140F (enzyme)
chain: MTVDSKPQLQRLAADADVDRMCRLLEEDGAFILKGLLPFDVVESFNRELDVQMAIPPPKGERLLADKYPPHFKYVPNVATTCPTFRNTVLINPVIHAICEAYFQRTGDYWLSAAFLREIESGMPAQPFHRDDATHPLMHFQPLEAPPVSLSVIFPLTEFTEENGATEVILGSHRWTEVGTPERDQAVLATMDPGDVLIVRQRVVHAGGGNRTTAGKPRRVVLAYFNSVQLTPFETYRTMPREMVESMTVLGQRMLGWRTMKPSDPNIVGINLIDDKRLENVLQLKAADSPA
stoichiometry N: 2

Reference: publication PMC6901024 (Journal of the American Chemical Society, 2019)
